Test results as given in US20220107327A1, “MULTI-TARGET CROSSLINKERS AND USES THEREOF” (The Regents of the University of California, published 2022).

B1: E. coli wild type glutathione S-transferase (GST) (enzyme)
chain: MKLFYKPGACSLASHITLRESGKDFTLVSVDLMKKRLENGDDYFAVNPKGQVPALLLDDGTLLTEGVAIMQYLADSVPDRQLLAPVNSISRYKTIEWLNYIATELHKGFTPLFRPDTPEEYKPTVRAQLEKKLQYVNEALKDEHWICGQRFTIADAYLFTVLRWAYAVKLNLEGLEHIAAFMQRMAERPEVQDALSAEGLKHHHHHH
notes: Written as the single subunit
B2: 19(3x) (ssDNA)
DNA: TGTAGCTGTTGATCTAAGTTGTAGCTGTTGATCTAAGTTGTAGCTGTTGATCTAAGT
B3: ATC(4x) (ssDNA)
DNA: AATTCGCCAATGACAAGACGCTGGGCGGGGCCGGATCCATCATCATCATCTAGAAGCT

Assays:
[1] = biological target: the molecule itself; assay: NHSF or BS2G cross-linking of purified GST; SDS-PAGE and Western blot under reducing and denatured conditions (homodimer)
[2] = biological target: SSB (single-stranded DNA binding protein) (UniProt P0AGE0 P0AGE0:2-178); assay: covalent crosslinking with NHQM + 365 nm UV, denaturing TBE-urea gel shift; 1.5 uM DNA, 0.2 mg/mL SSB, 37 C 30 min; no crosslink with BS3 or UV alone; conditions: chain copies: 4
Sequence of SSB (single-stranded DNA binding protein) (P0AGE0 2-178, one chain of several): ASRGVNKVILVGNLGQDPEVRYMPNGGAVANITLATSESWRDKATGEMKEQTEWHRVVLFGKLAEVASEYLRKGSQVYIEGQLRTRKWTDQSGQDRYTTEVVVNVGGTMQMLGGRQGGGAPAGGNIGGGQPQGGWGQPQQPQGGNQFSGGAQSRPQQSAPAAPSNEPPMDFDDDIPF

Row | Binder | binding result [1] | binding result [2]
1 | B1 | binds | 
2 | B2 |  | binds
3 | B3 |  | binds
